From patent US20220218614A1, “IONIZABLE CATIONIC LIPIDS AND LIPID NANOPARTICLES, AND METHODS OF SYNTHESIS AND USE THEREOF” (Tidal Therapeutics, Inc., priority 2020, published 2022)

B1: A3: anti-CD56 A3 Fab bDS, SEQ ID NO: 30 and 31 (antibody)
heavy: EVQLVQSGAEVKKPGSSVKVSCKASGGTFTGYYMHWVRQAPGQGLEWMGWINPNSGGTNYAQKFQGRVTMTRDTSISTAYMELSRLRSDDTAVYYCARDLSSGYSGYFDYWGQGTLVTVSSASTKGPSVFPLAPSSKSTSGGTAALGCLVKDYFPEPVTVSWNSGALTSGVHTCPAVLQSSGLYSLSSVVTVPSSSLGTQTYICNVNHKPSNTKVDKKVEPKSSDKTHTCGGHHHHHH
light: DVVMTQSPLSLPVTPGEPASISCRSSQSLLHSNGYNFLDWYLQKPGQSPQLLIYLGSNRASGVPDRFSGSGSGTDFTLKISRVEADDVGVYYCMQSLQTPWTFGHGTKVEIKRTVAAPSVFIFPPSDEQLKSGTASVVCLLNNFYPREAKVQWKVDNALQSGNSQESVTEQDSKDSTYSLCSTLTLSKADYEKHKVYACEVTHQGLSSPVTKSFNRGES
B2: Lorvotuzumab: anti-CD56 Lorvotuzumab Fab bDS, SEQ ID NO: 32 and 33 (antibody)
heavy: QVQLVESGGGVVQPGRSLRLSCAASGFTFSSFGMHWVRQAPGKGLEWVAYISSGSFTIYYADSVKGRFTISRDNSKNTLYLQMNSLRAEDTAVYYCARMRKGYAMDYWGQGTLVTVSSASTKGPSVFPLAPSSKSTSGGTAALGCLVKDYFPEPVTVSWNSGALTSGVHTCPAVLQSSGLYSLSSVVTVPSSSLGTQTYICNVNHKPSNTKVDKKVEPKSSDKTHTCHHHHHH
light: DVVMTQSPLSLPVTLGQPASISCRSSQIIIHSDGNTYLEWFQQRPGQSPRRLIYKVSNRFSGVPDRFSGSGSGTDFTLKISRVEAEDVGVYYCFQGSHVPHTFGQGTKVEIKRTVAAPSVFIFPPSDEQLKSGTASVVCLLNNFYPREAKVQWKVDNALQSGNSQESVTEQDSKDSTYSLCSTLTLSKADYEKHKVYACEVTHQGLSSPVTKSFNRGES
B3: V1: anti-CD7 Nanobody, SEQ ID NO: 80 (protein)
VHH: DVQLQESGGGLVQAGGSLRLSCAVSGYPYSSYCMGWFRQAPGKEREGVAAIDSDGRTRYADSVKGRFTISQDNAKNTLYLQMNRMKPEDTAMYYCAARFGPMGCVDLSTLSFGHWGQGTQVTVSITGGGCHHHHHHHH
B4: OKT4: anti-CD4 humanized OKT4 bDS Fab, SEQ ID NO: 74 and 75 (antibody)
heavy: EVQLVESGGGLVQPGGSLRLSCAASGFTFSNYAMSWVRQAPGKRLEWVSAISDHSTNTYYPDSVKGRFTISRDNAKNTLYLQMNSLRAEDTAVYYCARKYGGDYDPFDYWGQGTLVTVSSASTKGPSVFPLAPSSKSTSGGTAALGCLVKDYFPEPVTVSWNSGALTSGVHTCPAVLQSSGLYSLSSVVTVPSSSLGTQTYICNVNHKPSNTKVDKKVEPKSSDKTHTCHHHHHH
light: DIQMTQSPSSLSASVGDRVTITCQASQDINNYIAWYQHKPGKGPKLLIHYTSTLQPGIPSRFSGSGSGRDYTLTISSLQPEDFATYYCLQYDNLLFTFGGGTKVEIKRTVAAPSVFIFPPSDEQLKSGTASVVCLLNNFYPREAKVQWKVDNALQSGNSQESVTEQDSKDSTYSLCSTLTLSKADYEKHKVYACEVTHQGLSSPVTKSFNRGES
B5: 12D2: anti-CD3 12D2 bDS Fab, SEQ ID NO: 84 and 85 (antibody)
heavy: EVKLVESGGGLVQPGRSLRLSCAASGFNFYAYWMGWVRQAPGKGLEWIGEIKKDGTTINYTPSLKDRFTISRDNAQNTLYLQMTKLGSEDTALYYCAREERDGYFDYWGQGVMVTVSSASTKGPSVFPLAPSSKSTSGGTAALGCLVKDYFPEPVTVSWNSGALTSGVHTCPAVLQSSGLYSLSSVVTVPSSSLGTQTYICNVNHKPSNTKVDKKVEPKSSDKTHTCGGHHHHHH
light: QFVLTQPNSVSTNLGSTVKLSCKRSTGNIGSNYVNWYQQHEGRSPTTMIYRDDKRPDGVPDRFSGSIDRSSNSALLTINNVQTEDEADYFCQSYSSGIVFGGGTKLTVLSQPKAAPSVTLFPPSSEELQANKATLVCLVSDFYPGAVTVAWKADGSPVKVGVETTKPSKQSNNKYAACSYLSLTPEQWKSHRSYSCRVTHEGSTVEKTVAPAESS
B6: TRX2 ScFv: anti-CD8 TRX2 ScFv, SEQ ID NO: 98 (protein)
scFv: QVQLVESGGGVVQPGRSLRLSCAASGFTFSDFGMNWVRQAPGKGLEWVALIYYDGSNKFYADSVKGRFTISRDNSKNTLYLQMNSLRAEDTAVYYCAKPHYDGYYHFFDSWGQGTLVTVSSGGGGSGGGGSGGGGSGGGGSDIQMTQSPSSLSASVGDRVTITCKGSQDINNYLAWYQQKPGKAPKLLIYNTDILHTGVPSRFSGSGSGTDFTFTISSLQPEDIATYYCYQYNNGYTFGQGTKVEIKGGGSGGCGGHHHHHH

The molecules below were run on primary human NK cells (assay: LNP transfection of co-cultured human T cells and NK cells: NK cells). Settings: Lipid 8 LNP, 2.5 ug/mL mRNA, 24 hours.
Format: cell-based
Description: CD3-depleted PBMCs were purified using magnetic-based CD3 positive selection and retaining of the negative fraction. 20 million CD3 depleted PBMCs were added to 1 well of a 6 well GREX plate in media containing 10 ng/mL IL-15 for 7 days. On day 7, each well was split in 2 and cells were cultured further in media containing 10 ng/mL IL-15 for an additional 7 days. On day 14, NK cells were concentrated to 1 million cells/mL in preparation for co-transfection with primary human T cells.
LNPs were prepared using the mixing process described in Example 6, the buffer exchange process described in Example 25. The LNPs were formulated using eGFP encoding mRNA (TriLink Biotechnologies, California, US), Lipid 8 as the ionizable lipid, and labeled with 0.01 mol % DiIC18(5)-DS (Invitrogen, Massachusetts, US). Fab-lipid conjugates generated from methods described in Example 4 while generation of Nb-conjugated differed in using 1:1:4 Nb:DSPE-SKPEG-maileimide:DSPE-2KPEG-OCH3 and a 50 kD UF membrane (Millipore Corp, Billerica, Mass. USA) for separation of Nb-conjugate from free Nb. Using methods similar to Example 12, conjugated Fabs and conjugated Nb were post-inserted at various densities (Table 41) into LNPs containing Lipid 8 and GFP mRNA with DiI dye. […]. […]
24 hours after LNP transfection, cell culture media was aspirated from T cell and NK cell co-cultures after centrifugation. […] Following acquisition by flow cytometry, T cells and NK cells were analyzed independently using FlowJo (flow cytometry analysis software). In either CD3+ cells (T cells) or CD56+ cells (NK cells), the frequency of GFP positive events relative to GFP negative events was calculated (FIG. 64A). Additionally, the overall fluorescence of GFP was quantified by assessment of mean fluorescence intensity (MFI, FIG. 64B). […] Together, these metrics enabled quantification of LNP transfection efficiency of all targeted LNPs tested in primary human T cell and NK cell co-cultures.

Row | Molecule | transfection of NK cells in T/NK co-culture (% GFP, GFP MFI, DiI), in words
1 | B1 | highly specific transfection of NK cells
2 | B2 | highly specific transfection of NK cells

What follows are molecules tested on human CD3 T cells (assay: Transfection of human CD3 T cells (CD8 and CD4 subsets) with Fab/Nb-targeted LNPs). Settings: targeted Lipid 8 LNP (Lipid 5 in Example 43), GFP mRNA approximately 2.5 μg/mL, approximately 24 hr.
Format: cell-based
Description: LNPs were prepared using the mixing process described in Example 6, the buffer exchange process described below in Example 21. Using methods similar to Example 12, hSP34 and TRX2 Fab-lipid conjugates and a non-T cell specific anti-HER2 lipid-conjugate (Nellis D F, Ekstrom D L, Kirpotin D B, Zhu J, Andersson R, Broadt T L, Ouellette T F, Perkins S C, Roach J M, Drummond D C, Hong K, Marks J D, Park J W and Giardina S L (2005) Preclinical manufacture of an anti-HER2 scFv-PEG-DSPE, liposome-inserting conjugate. 1. Gram-scale production and purification. Biotechnol Prog 21:205-220) were post-inserted at various densities (SP34 0.25-17 g/mol; TRX2 0.25-9 g/mol; SP34+TRX2 0.25-9 g/mol each conjugate; anti-HER2 17 g/mol) into LNPs containing Lipid 8 and anti-CD20 targeting CART mRNA. Transfections were performed with human CD3 T cells at approximately 2.5 μg/mL mRNA for approximately 24 hr. For FACS analysis T cells were stained with M1 antibody (Sigma, F3040) that bind a N-terminus FLAG-tag variant sequence on the TTR-023 CAR (sequence provided below) in addition to staining for CD69 (Biolegend, 310930) and CD4 (Biolegend, 344648) to differentiate CD8 from CD4 cells.
LNPs were prepared using the mixing process described in Example 6, the buffer exchange process described in Example 21. Using methods similar to Example 12, hSP34, TRX2, and Ibalizumab Fab-lipid conjugates and a non-T cell specific anti-HER2 lipid-conjugate were post-inserted at various densities (specified in FIGS. 20A and 20B into LNPs containing Lipid 8 and Cy5/GFP mRNA. Transfections were performed with human CD3 T cells at approximately 2.5 μg/mL mRNA for approximately 24 hr and stained for CD69 (Biolegend, 310930) and CD4 (Biolegend, 344648) to differentiate CD8 from CD4 cells by FACS analysis.
LNPs were prepared using the mixing process described in Example 6, the buffer exchange process described in Example 21. Conjugates were generated using a method similar to that of Example 4 except 0.025, 0.1, 0.5 mM TCEP was used for hSP34 DS, 0.025, 0.2, 2 mM TCEP was used for hSP34-hlam NoDS (interchain disulfide knockout) for reduction prior to conjugation and the conjugation reactions were performed at 37 C for 2 hr. SDS-PAGE (FIGS. 65A, 65B) was performed using the manufacturers recommended conditions with 1 ug of protein (Thermo, 4-12% Bis-Tris MiniGel). RP-HPLC (FIGS. 65C, 65D) was performed using an Agilent 300 SB-C8 at 0.5 mL/min with a column temperature of 60° C., Mobile Phase A: Water with 0.1% TFA, Mobile Phase B: Acetonitrile with 0.1% TFA, Gradient % B: 0 min 5%, 1 min 5%, 6.5 min 95%, 8 min 95% injecting 10 ul with a target of 1-25 ug of protein. Using methods similar to Example 12, ant-CD3 hSP34 (with and without natural interchain disulfide, DS (with interchain disulfide) vs. NoDS (without interchain disulfide), see sequences below) PEG-lipid conjugated Fabs were post-inserted at various Fab densities (6, 12, 17 g Fab/mol total lipid) into LNPs containing Lipid 8 and Cy5/GFP mRNA. Transfections were performed with human CD3 T cells at approximately 2.5 μg/mL mRNA for approximately 24 hr. Levels of transfection of CD3 T cells was measured by flow cytometry.
LNPs were prepared using the mixing process described in Example 6, the buffer exchange process described in Example 21. Conjugates were generated using a method similar to that of Example 4 except 0.1 mM TCEP was used for reduction prior to conjugation and the conjugation reaction was performed at 37 C for 2 hr. […]

Row | Molecule | % GFP transfection and GFP expression (MFI) of CD8 and CD4 T cells, in words
3 | B3 | 3.4K PEG mediated higher transfection and expression than the 5K PEG
4 | B4 | highly specific LNP transfection and protein translation of CD4+ T cells versus CD8+ T cells
5 | B5 | can efficiently transfect both CD8 and CD4 T cell subsets
6 | B6 | slightly lower % transfection (FIG. 82A) and GFP expression levels (FIG. 82B) in the CD8 T cell subset relative to the anti-CD8 TRX2 NoDS Fab
